In the supplement of paper PMC7877785:
± gives the uncertainty stated by the source.

Assay: self-splicing fitness, log relative to wild type (ln ratio); higher = more splicing; Tetrahymena group I intron in knt gene, E. coli kanamycin selection, DiMSum; sequences stand for … in CUCUCU…GGAGGGAAAAGUUAUCAGGCAUGCACCUGGUAGCUAGUCUUUAAACCAAUAGAUUGCAUCGGUUUAAAAGGCAAGACCGUCAAAUUGCGGGAAAGGGGUCAACAGCCGUUCAGUACCAAGUCUCAGGGGAAACUUUGAGAUGGCCUUGCAAAGGGUAUGGUAAUAAGCUGACGGACAUGGUCCUAACCACGCAGCCAAGUCCUAAGUCAACAGAUCUUCUGUUGAUAUGGAUGCAGUUCACAGACUAAAUGUCGGUCGGGGAAGAUGUAUUCUUCUCAUAAGAUAUAGUCGGACCUCUCCUUAAUGGGAGCUAGCGGAUGAAGUGAUGCAACACUGGAGCCGCUGGGAACUAAUUUGUAUGCGAAAGUAUAUUGAUUAGUUUUGGAGUACUCGUGGUCG
Procedure, shortened: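 The eight P1ex-region nucleotides of an intron in the knt kanamycin-resistance gene on pET-22b(+) were all randomised and the library put into E. coli BL21(DE3). Six replicate transformations were grown overnight at 37°C or 30°C on LB agar with or without 25 μg/mL kanamycin, together with 100 μg/mL carbenicillin, 50 μM IPTG and 0.2% rhamnose. Colonies were pooled and amplicon-sequenced on an Illumina HiSeq 2500. Fitness from DiMSum is the error-weighted combination of wild-type-normalised replicate fold changes, kanamycin over none.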

Sequence | self-splicing fitness (ln) (30 °C) | self-splicing fitness (ln) (37 °C)
UGAAAGCAAUAUUACGCAAA | -2.12 ± 0.11 | -0.812 ± 0.11
UGAAAGCAAUAUUACGCAGC | – | -1.62 ± 0.22
UGAAAGCAAUAUUACGCAUA | -1.31 ± 0.098 | -0.274 ± 0.11
UGAAAGCAAUAUUACGCCCC | -1.35 ± 0.43 | 0.00457 ± 0.49
UGAAAGCAAUAUUACGCUAC | -3.01 ± 0.28 | -1.75 ± 0.33
UGAAAGCAAUAUUACGCUAU | -3.32 ± 0.23 | -1.54 ± 0.17
UGAAAGCAAUAUUACGCUCA | -1 ± 0.19 | -0.0203 ± 0.25
UGAAAGCAAUAUUACGCUGU | -3.67 ± 0.19 | -1.73 ± 0.17
UGAAAGCAAUAUUACGCUUG | -1.8 ± 0.11 | -1.32 ± 0.13
UGAAAGCAAUAUUACGGACC | -0.608 ± 0.13 | -0.126 ± 0.16
UGAAAGCAAUAUUACGGAUG | -1.05 ± 0.09 | -0.581 ± 0.11
UGAAAGCAAUAUUACGGCCC | -0.866 ± 0.26 | 0.448 ± 0.4
UGAAAGCAAUAUUACGGGAC | -3.12 ± 0.24 | -2.31 ± 0.21
UGAAAGCAAUAUUACGGUGA | -1.27 ± 0.11 | -1.04 ± 0.14
UGAAAGCAAUAUUACGGUGU | -3.55 ± 0.18 | -2.02 ± 0.22
UGAAAGCAAUAUUACGUCGC | -3.49 ± 0.23 | -2.98 ± 0.32
UGAAAGCAAUAUUACGUGAA | -1.3 ± 0.07 | -1.5 ± 0.085
UGAAAGCAAUAUUACGUUGC | -3.54 ± 0.19 | -2.58 ± 0.21
UGAAAGCAAUAUUACGUUGU | -4.1 ± 0.22 | -2.04 ± 0.12

Sequence | self-splicing fitness (ln) (30 °C) | self-splicing fitness (ln) (37 °C)
UGACAGCAAUAUUACGACCG | 0.701 ± 0.16 | 0.698 ± 0.19
UGACAGCAAUAUUACGAGGU | -3.28 ± 0.15 | -2.65 ± 0.21
UGACAGCAAUAUUACGAUCU | -0.412 ± 0.07 | 0.277 ± 0.082
UGACAGCAAUAUUACGCAGA | -1.96 ± 0.15 | -1.11 ± 0.13
UGACAGCAAUAUUACGCAUA | -0.976 ± 0.07 | 0.0999 ± 0.082
UGACAGCAAUAUUACGCCAA | -1.51 ± 0.14 | -0.461 ± 0.12
UGACAGCAAUAUUACGCGGG | -2.59 ± 0.17 | -1.24 ± 0.14
UGACAGCAAUAUUACGCGUC | -4.67 ± 0.38 | -3.62 ± 0.27
UGACAGCAAUAUUACGGAGU | -4.14 ± 0.2 | -2.79 ± 0.13
UGACAGCAAUAUUACGGGAC | -4.05 ± 0.31 | -2.31 ± 0.22
UGACAGCAAUAUUACGUCUC | -4.29 ± 0.34 | -1.47 ± 0.22
UGACAGCAAUAUUACGUGCA | -1.06 ± 0.079 | 0.394 ± 0.11
UGACAGCAAUAUUACGUGCU | -4.32 ± 0.24 | -1.04 ± 0.11
UGACAGCAAUAUUACGUUCA | -0.939 ± 0.076 | 0.0202 ± 0.08
UGACAGCAAUAUUACGUUGG | -2.08 ± 0.12 | -1.82 ± 0.13
UGAGAGCAAUAUUACGAAGU | -3.04 ± 0.26 | -2.55 ± 0.31
UGAGAGCAAUAUUACGACAG | -4.41 ± 0.39 | -3.07 ± 0.34
UGAGAGCAAUAUUACGAGCA | – | 0.211 ± 0.27
UGAGAGCAAUAUUACGAUAU | – | -2.8 ± 0.44
